Experimental data taken from patent US20260083826A1, “NEW SYNTHETIC DRUGS FOR TREATING ALZHEIMER'S DISEASE” (OKINAWA INSTITUTE OF SCIENCE AND TECHNOLOGY SCHOOL …, priority 2022, published 2026).
Each block holds one molecule with its values, some of them ahead of it.

What was measured:
[1] = target: Taxol-stabilized microtubules; assay: MT spin-down (co-sedimentation) assay with PHDP5 (1 mM) added as competitor to MT and dynamin 1
[2] = target: microtubules in mouse calyceal terminals (endogenous, assembled after h-tau loading), Q9ERD7
Chain of microtubules in mouse calyceal terminals (endogenous, assembled after h-tau loading), Q9ERD7 (Q9ERD7 whole entry, looked up): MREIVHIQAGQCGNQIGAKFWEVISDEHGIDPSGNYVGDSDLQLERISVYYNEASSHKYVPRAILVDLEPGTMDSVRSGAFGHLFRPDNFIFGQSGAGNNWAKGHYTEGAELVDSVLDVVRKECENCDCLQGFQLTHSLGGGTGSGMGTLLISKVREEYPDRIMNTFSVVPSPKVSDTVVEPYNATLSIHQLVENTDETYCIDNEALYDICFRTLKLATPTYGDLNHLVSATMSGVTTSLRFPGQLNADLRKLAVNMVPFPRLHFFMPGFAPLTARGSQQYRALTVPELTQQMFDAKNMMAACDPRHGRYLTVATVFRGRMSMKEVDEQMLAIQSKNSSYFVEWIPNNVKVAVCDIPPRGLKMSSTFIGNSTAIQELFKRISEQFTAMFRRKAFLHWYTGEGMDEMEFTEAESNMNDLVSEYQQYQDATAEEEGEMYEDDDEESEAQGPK

% of dynamin 1 in precipitates (ppts) relative to total amount [1]: 6.3%
Molecule: His-tagged human dynamin 1 (from UniProt Q05193 1-864)

B1: dynamin 1 in mouse calyx of Held presynaptic terminals (endogenous) (protein)
chain: MGNRGMEDLIPLVNRLQDAFSAIGQNADLDLPQIAVVGGQSAGKSSVLENFVGRDFLPRGSGIVTRRPLVLQLVNSTTEYAEFLHCKGKKFTDFEEVRLEIEAETDRVTGTNKGISPVPINLRVYSPHVLNLTLVDLPGMTKVPVGDQPPDIEFQIRDMLMQFVTKENCLILAVSPANSDLANSDALKIAKEVDPQGQRTIGVITKLDLMDEGTDARDVLENKLLPLRRGYIGVVNRSQKDIDGKKDITAALAAERKFFLSHPSYRHLADRMGTPYLQKVLNQQLTNHIRDTLPGLRNKLQSQLLSIEKEVDEYKNFRPDDPARKTKALLQMVQQFAVDFEKRIEGSGDQIDTYELSGGARINRIFHERFPFELVKMEFDEKELRREISYAIKNIHGIRTGLFTPDLAFEATVKKQVQKLKEPSIKCVDMVVSELTSTIRKCSEKLQQYPRLREEMERIVTTHIREREGRTKEQVMLLIDIELAYMNTNHEDFIGFANAQQRSNQMNKKKTSGNQDEILVIRKGWLTINNIGIMKGGSKEYWFVLTAENLSWYKDDEEKEKKYMLSVDNLKLRDVEKGFMSSKHIFALFNTEQRNVYKDYRQLELACETQEEVDSWKASFLRAGVYPERVGDKEKASETEENGSDSFMHSMDPQLERQVETIRNLVDSYMAIVNKTVRDLMPKTIMHLMINNTKEFIFSELLANLYSCGDQNTLMEESAEQAQRRDEMLRMYHALKEALSIIGDINTTTVSTPMPPPVDDSWLQVQSVPAGRRSPTSSPTPQRRAPAVPPARPGSRGPAPGPPPAGSALGGAPPVPSRPGASPDPFGPPPQVPSRPNRAPPGVPRITISDP
dynamin immunofluorescence in permeabilised h-tau-loaded terminals against terminals without h-tau loading [2]: a 2.6-fold increase in dynamin signal
